Test results as given in publication PMC12279188.

Target: KSHV gB653-mut ectodomain (Kaposi's sarcoma-associated herpesvirus (KSHV), strain GK18) (UniProt F5HB81)
Experiment: cryo-EM structure

Substance: KSHV gB653-mut ectodomain (from UniProt F5HB81 27-653) (domain or fragment)
- stoichiometry N: 3
